Patent US6137031, “DNA binding proteins that interact with NPR1” (Duke University, dated 2000)

B1: AHBP-1b (full-length, two-hybrid prey in pJG4-5) (other)
chain: MADTSPRTDVSTDDDTDHPDLGSEGALVNTAASDSSDRSKGKMDQKTLRRLAQNREAARKSRLRKKAYVQQLENSRLKLTQLEQELQRARQQGVFISGTGDQAHSTGGNGALAFDAEHSRWLEEKNKQMNELRSALNAHAGDSELRIIVDGVMAHYEELFRIKSNAAKNDVFHLLSGMWKTPAERCFLWLGGFRSSELLKLLANQLEPMTERQLMGINNLQQTSQQAEDALSQGMESLQQSLADTLSSGTLGSSSSGNVASYMGQMAMAMGKLGTLEGFIRQADNLRLQTLQQMIRVLTTRQSARALLAIHDYFSRLRALSSLWLARPRE
B2: TGA6 (full-length, two-hybrid prey in pJG4-5) (other)
chain: MADTSSRTDVSTDGDTDHRDLGSDRGHMHAAASDSSDRSKDKLDQKTLRRLAQNREAARKSRLRKKAYVQQLENSRLKLTQLEQELQRARQQGVFISSSGDQAHSTGGNGALAFDAEHSRWLEEKNRQMNELRSALNAHAGDTELRIIVDGVMAHYEELFRIKSNAAKNDVFHLLSGMWKTPAERCFLWLGGFRSSELLKLLANQLEPMTERQVMGINSLQQTSQQAEDALSQGMESLQQSLADTLSSGTLGSSSSDNVASYMGQMAMAMGQLGTLEGFIRQADNLRLQTLQQMLRVLTTRQSARALLAIHDYSSRLRALSSLWLARPRE
B3: NPR1 1-177 (pEGNPR11-177) (other)
chain: MDTTIDGFADSYEISSTSFVATDNTDSSIVYLAAEQVLTGPDVSALQLLSNSFESVFDSPDDFYSDAKLVLSDGREVSFHRCVLSARSSFFKSALAAAKKEKDSNNTAAVKLELKEIAKDYEVGFDSVVTVLAYVYSSRVRPPPKGVSECADENCCHVACRPAVDFMLEVLYLAFIF

Experiments:
[1] = target: full-length tomato NPR1 homolog (tomato); test: yeast two-hybrid, β-galactosidase reporter
[2] = target: full-length A. thaliana NPR1 (two-hybrid bait in pEG202) (Arabidopsis thaliana) (UniProt P93002); test: yeast two-hybrid, β-galactosidase reporter
[3] = target: npr1-1 mutant NPR1 bait (Arabidopsis thaliana, UniProt P93002); test: yeast two-hybrid, β-galactosidase activity
[4] = target: npr1-2 mutant NPR1 bait (Arabidopsis thaliana, UniProt P93002); test: yeast two-hybrid, β-galactosidase activity
[5] = target: NPR1 1-432 (pEGNPR11-432) (Arabidopsis thaliana) (UniProt P93002); test: yeast two-hybrid, β-galactosidase reporter
[6] = target: NPR1 178-593 (pEGNPR1178-593) (Arabidopsis thaliana) (UniProt P93002); test: yeast two-hybrid, β-galactosidase reporter
[7] = target: B1; test: yeast two-hybrid, β-galactosidase activity

units of β-galactosidase activity [2] [units] | binding result [3] | binding result [4] | Molecule | other results
 |  |  | NIF1 (NPR-1-Interacting Factor 1) | units of β-galactosidase activity [1]: 1290 units
7.6 |  |  | OBF5 (full-length, two-hybrid prey in pJG4-5) (from UniProt Q39163) | 
673 | no binding | no binding | B1 | units of β-galactosidase activity [5]: 522 units; units of β-galactosidase activity [6]: 17.6 units
372 | no binding | no binding | B2 | 
 |  |  | B3 | binding result [7]: no binding
